Test results from PMC9407234.

Columns and labels:
[1] = target: XPA M32-4/70-2 (UniProt P23025 1-273, R30E;K31E;R32E;R34E;E106K;F112A); test: MST
[2] = target: XPA M32-4 (UniProt P23025 1-273, R30E;K31E;R32E;R34E); test: MST
Chain of XPA M32-4 (P23025 whole entry R30E/K31E/R32E/R34E): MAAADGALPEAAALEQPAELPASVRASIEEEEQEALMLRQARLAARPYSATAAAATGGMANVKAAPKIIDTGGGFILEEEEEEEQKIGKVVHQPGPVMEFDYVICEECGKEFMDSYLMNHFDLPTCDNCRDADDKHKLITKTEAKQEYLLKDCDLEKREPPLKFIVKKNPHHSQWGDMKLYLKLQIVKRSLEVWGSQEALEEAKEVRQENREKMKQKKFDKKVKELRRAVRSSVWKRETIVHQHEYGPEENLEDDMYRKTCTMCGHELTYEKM

Chain of XPA M32-4/70-2 (P23025 whole entry R30E/K31E/R32E/R34E/E106K/F112A): as the sequence (P23025 whole entry R30E/K31E/R32E/R34E) above, with E106K, F112A counted along it

B1: 4-nt hairpin NER junction mimic (structured_DNA)
DNA: TTTTGCGGCCGCTTTTGCGGCCGC
Kd [1]: 10 ± 3 µM
Kd [2]: 8.4 ± 2.3 µM
